# The RNAGym collection of RNA variant scans (doi:10.1021/acssynbio.7b00057)
# B1: Pistol ribozyme (parent)
# chain: GGGUCGUUGUUCCAUAAUCGCGUGGAUAUGGCACGCAAGUUUCUACCGGGCACCGUAAAUGUCCGACUGGAGCCGUUCGGGCGGCUAUAAACAGACCUCAGGCCCGAAGCGUGGCGGCACCUGCCGCCGGUGGUAAAAAAGAUCGGAAGAGCACACGUCU
# Variants of: B1
# Experiment: aptazyme ON/OFF ratio, guanine; higher = stronger switching; co-transcriptional cleavage with and without guanine
row,Variant,aptazyme ON/OFF ratio
1,U8A U10G,1.62
2,U8A U10A,1.07
3,U8A U10C,4.03
4,U8A U10A U11A C12A C13A,1.21
5,U8A U10A U11A C12A C13G,1.04
6,U8A U10A U11A C12A C13U,1.11
7,U8A U10G U11G C12A C13G,1.15
8,U8A U10G U11G C12A C13A,1.18
9,U8A U10G U11G C12A C13U,1.44
10,U8A U10G C12G C13U,1.34
11,U8A U10G C12G C13A,1.37
12,U8A U10G C12G C13G,1.12
13,U8A G9U U10G U11A C12G,1.28
14,U8A G9U U10G U11A C12U,1.05
15,U8A G9U U10G U11A C12A,1.21
16,U8A G9U U10G U11G C12U C13U,1.35
17,U8A G9U U10G U11G C12U C13A,1.32
18,U8A G9U U10G U11G C12U C13G,1.21
19,U8A G9U U11G C12G C13G,1.24
20,U8A G9U U11G C12G C13U,1.16
21,U8A G9U U11G C12G C13A,1.25

row,Variant,aptazyme ON/OFF ratio
1,U8A U10A U11G C12U C13A,1.2
2,U8A U10A U11G C12U C13G,1.45
3,U8A U10A U11G C12U C13U,1.4
4,U8A G9U U10G U11A C13A,1.02
5,U8A G9U U10G U11A C13G,1.03
6,U8A G9U U10G U11A C13U,1.03
7,U8A G9U U10G U11G C12U,1.28
8,U8A G9U U10G U11G C12G,1.27
9,U8A G9U U10G U11G C12A,1.07
10,U8A U10A C12G C13A,1.15
11,U8A U10A C12G C13U,1.37
12,U8A U10A C12G C13G,1.19
13,U8A G9U U10C U11G C12G C13U,1.11
14,U8A G9U U10C U11G C12G C13G,1.11
15,U8A G9U U10C U11G C12G C13A,1.15
16,U8A G9U U11C C12A C13A,1.14
17,U8A G9U U11C C12A C13U,1.11
18,U8A G9U U11C C12A C13G,1.07
19,U8A G9U U11A C12U C13G,1.09
20,U8A G9U U11A C12U C13A,1.52
21,U8A G9U U11A C12U C13U,1.08

row,Variant,aptazyme ON/OFF ratio
1,U8A G9U U10G C12U C13U,1.45
2,U8A G9U U10G C12U C13G,1.27
3,U8A G9U U10G C12U C13A,1.31
4,U8A U10C U11G C13G,1.13
5,U8A U10C U11G C13A,1.21
6,U8A U10C U11G C13U,1.19
7,U8A U10C U11A C12A C13A,1.21
8,U8A U10C U11A C12A C13U,1.3
9,U8A U10C U11A C12A C13G,1.1
10,U8A U10G C12A C13U,1.23
11,U8A U10G C12A C13A,1.23
12,U8A U10G C12A C13G,1.09
13,U8A U10G U11A,1.09
14,U8A U10G U11C,1.02
15,U8A U10G U11G,1.16
16,U8A G9U U10G U11C C13G,1.04
17,U8A G9U U10G U11C C13A,1.03
18,U8A G9U U10G U11C C13U,1.02
19,U8A U10A U11C C12G C13U,1.16
20,U8A U10A U11C C12G C13G,1.27
21,U8A U10A U11C C12G C13A,1.1

row,Variant,aptazyme ON/OFF ratio
1,U8A U10G U11C C12A C13G,1.14
2,U8A U10G U11C C12A C13U,1.21
3,U8A U10G U11C C12A C13A,1.26
4,U8A U10A U11G C12A C13A,1.13
5,U8A U10A U11G C12A C13G,1.3
6,U8A U10A U11G C12A C13U,1.07
7,U8A U10C U11G C12G C13A,1.29
8,U8A U10C U11G C12G C13G,1.26
9,U8A U10C U11G C12G C13U,1.14
10,U8A G9U U10C U11A C12U C13G,1.1
11,U8A G9U U10C U11A C12U C13A,1.26
12,U8A G9U U10C U11A C12U C13U,1.15
13,U8A G9U U10C U11C C12G C13U,1.02
14,U8A G9U U10C U11C C12G C13A,1.07
15,U8A G9U U10C U11C C12G C13G,1.08
16,U8A U10A U11G C13G,1.14
17,U8A U10A U11G C13U,1.13
18,U8A U10A U11G C13A,1.18
19,U8A G9U U11C C12G,1.08
20,U8A G9U U11C C12A,1
